Measured values published in patent US20210380703A1.

These binders were tested against Human Fc (human) (assay: ELISA, negative control).

Binder | optical density [OD]
369_F11 (antibody, V domains shown) VH: EVQLLESGGGLVQPGGSLRLSCAASGFTFDSYGMNWVRQAPGKGLEWVSNINYNSGYKSYADSVKGRFTISRDNSKNTLYLQMNSLRAEDTAVYYCARSANWHDTALDYWGQGTLVTVSS VL: DIQMTQSPSSLSASVGDRVTITCRASQSIISYLNWYQQKPGKAPKLLIYAATSRASGVPSRFSGSGSGTDFTLTISSLQPEDFATYYCQQSYDLPLTFGGGTKVEIK | 0.37
370_C01 (antibody, V domains shown) VH: EVQLLESGGGLVQPGGSLRLSCAASGFTFDSYSMNWVRQAPGKGLEWVSGINYNSGYTGYADSVKGRFTISRDNSKNTLYLQMNSLRAEDTAVYYCARSANWHDTALDYWGQGTLVTVSS VL: DIQMTQSPSSLSASVGDRVTITCRASQSILTYLNWYQQKPGKAPKLVIYAATSLASGVPSRFSGSGSGTDFTLTISSLQPEDFATYYCQQSYDTPLTFGGGTKVEIK | 0.403
369_H09 (antibody, V domains shown) VH: EVQLLESGGGLVQPGGSLRLSCAASGFTFDDYSMNWVRQAPGKGLEWVSGINYNGGYTSYADSVKGRFTISRDNSKNTLYLQMNSLRAEDTAVYYCARSANWHDTALDYWGQGTLVTVSS VL: DIQMTQSPSSLSASVGDRVTITCRASQSILSYVNWYQQKPGKAPKLLIYAVTSLASGVPSRFSGSGSGTDFTLTISSLQPEDFATYYCQQSYESPLTFGGGTKVEIK | 0.365
370_C05 (antibody, V domains shown) VH: EVQLLESGGGLVQPGGSLRLSCAASGFTFSSYSMNWVRQAPGKGLEWVAGINYNSGYTGYADSVKGRFTISRDNSKNTLYLQMNSLRAEDTAVYYCARSANWHDTALDYWGQGTLVTVSS VL: DIQMTQSPSSLSASVGDRVTITCRASQSILSYVNWYQQKPGKAPKLVIYAATSRASGVPSRFSGSGSGTDFTLTISSLQPEDFATYYCQQSYNSPLTFGGGTKVEIK | 0.346
370_C08 (antibody, V domains shown) VH: EVQLLESGGGLVQPGGSLRLSCAASGFTFSSYGMNWVRQAPGKGLEWVAGINYNGGYKGYADSVKGRFTISRDNSKNTLYLQMNSLRAEDTAVYYCARSANWHDTALDYWGQGTLVTVSS VL: DIQMTQSPSSLSASVGDRVTITCRASQSISNYLNWYQQKPGKAPKLLIYAVTSRASGVPSRFSGSGSGTDFTLTISSLQPEDFATYYCQQSYDSPLTFGGGTKVEIK | 0.381
370_A12 (antibody, V domains shown) VH: EVQLLESGGGLVQPGGSLRLSCAASGFTFSSYGMNWVRQAPGKGLEWVAGINYNGGYTSYADSVKGRFTISRDNSKNTLYLQMNSLRAEDTAVYYCARSANWHDTALDYWGQGTLVTVSS VL: DIQMTQSPSSLSASVGDRVTITCRASQSILTYLNWYQQKPGKAPKLLIYAATSLASGVPSRFSGSGSGTDFTLTISSLQPEDFATYYCQQSYDSPLTFGGGTKVEIK | 0.674
369_G04 (antibody, V domains shown) VH: EVQLLESGGGLVQPGGSLRLSCAASGFTFDSYSMNWVRQAPGKGLEWVSGINYNGGYTSYADSVKGRFTISRDNSKNTLYLQMNSLRAEDTAVYYCARSANWHDTALDYWGQGTLVTVSS VL: DIQMTQSPSSLSASVGDRVTITCRASQSILTYVNWYQQKPGKAPKLLIYATTSRHSGVPSRFSGSGSGTDFTLTISSLQPEDFATYYCQQSYETPLTFGGGTKVEIK | 0.385

More lines, now with the values ahead:

optical density [OD] | Binder
0.371 | 370_D04 (antibody, V domains shown) VH: EVQLLESGGGLVQPGGSLRLSCAASGFTFDSYSMNWVRQAPGKGLEWVANINYNSGYKGYADSVKGRFTISRDNSKNTLYLQMNSLRAEDTAVYYCARSANWHDTALDYWGQGTLVTVSS VL: DIQMTQSPSSLSASVGDRVTITCRASQSILTYLNWYQQKPGKAPKLVIYAATSRASGVPSRFSGSGSGTDFTLTISSLQPEDFATYYCQQSYDNPLTFGGGTKVEIK
0.353 | 369_G12 (antibody, V domains shown) VH: EVQLLESGGGLVQPGGSLRLSCAASGFTFSSYSMNWVRQAPGKGLEWVANINYNGGYTGYADSVKGRFTISRDNSKNTLYLQMNSLRAEDTAVYYCARSANWHDTALDYWGQGTLVTVSS VL: DIQMTQSPSSLSASVGDRVTITCRASQSILTYVNWYQQKPGKAPKLVIYAATSRHSGVPSRFSGSGSGTDFTLTISSLQPEDFATYYCQQSDNTPLTFGGGTKVEIK
0.474 | 369_G06 (antibody, V domains shown) VH: EVQLLESGGGLVQPGGSLRLSCAASGFTFDSYGMNWVRQAPGKGLEWVAGINYNGGYTSYADSVKGRFTISRDNSKNTLYLQMNSLRAEDTAVYYCARSANWHDTALDYWGQGTLVTVSS VL: DIQMTQSPSSLSASVGDRVTITCRASQSILSYVNWYQQKPGKAPKLVIYAATSRASGVPSRFSGSGSGTDFTLTISSLQPEDFATYYCQQSYENPLTFGGGTKVEIK
0.377 | 370_A04 (antibody, V domains shown) VH: EVQLLESGGGLVQPGGSLRLSCAASGFTFDSYSMNWVRQAPGKGLEWVSGINYNGGYTSYADSVKGRFTISRDNSKNTLYLQMNSLRAEDTAVYYCARSANWHDTALDYWGQGTLVTVSS VL: DIQMTQSPSSLSASVGDRVTITCRASQSIITYLNWYQQKPGKAPKLLIYAATSRASGVPSRFSGSGSGTDFTLTISSLQPEDFATYYCQQSYDNPLTFGGGTKVEIK
0.424 | 370_A03 (antibody, V domains shown) VH: EVQLLESGGGLVQPGGSLRLSCAASGFTFSSYSMNWVRQAPGKGLEWVSNINYNGGYTSYADSVKGRFTISRDNSKNTLYLQMNSLRAEDTAVYYCARSANWHDTALDYWGQGTLVTVSS VL: DIQMTQSPSSLSASVGDRVTITCRASQSILSYLNWYQQKPGKAPKLLIYAATSRASGVPSRFSGSGSGTDFTLTISSLQPEDFATYYCQQSYDSPLTFGGGTKVEIK
0.331 | 369_G11 (antibody, V domains shown) VH: EVQLLESGGGLVQPGGSLRLSCAASGFTFSSYSMNWVRQAPGKGLEWVANINYNSGYKGYADSVKGRFTISRDNSKNTLYLQMNSLRAEDTAVYYCARSANWHDTALDYWGQGTLVTVSS VL: DIQMTQSPSSLSASVGDRVTITCRASQSILTYLNWYQQKPGKAPKLLIYAATSLASGVPSRFSGSGSGTDFTLTISSLQPEDFATYYCQQSYESPLTFGGGTKVEIK
0.457 | 369_H05 (antibody, V domains shown) VH: EVQLLESGGGLVQPGGSLRLSCAASGFTFSSYGMNWVRQAPGKGLEWVANINYNGGYTGYADSVKGRFTISRDNSKNTLYLQMNSLRAEDTAVYYCARSANWHDTALDYWGQGTLVTVSS VL: DIQMTQSPSSLSASVGDRVTITCRASQSIVSYVNWYQQKPGKAPKLLIYAATSRASGVPSRFSGSGSGTDFTLTISSLQPEDFATYYCQQSYSNPLTFGGGTKVEIK
0.637 | 370_A01 (antibody, V domains shown) VH: EVQLLESGGGLVQPGGSLRLSCAASGFTFSSYSMNWVRQAPGKGLEWVSGINYNSGYKSYADSVKGRFTISRDNSKNTLYLQMNSLRAEDTAVYYCARSANWHDTALDYWGQGTLVTVSS VL: DIQMTQSPSSLSASVGDRVTITCRASQSISTYLNWYQQKPGKAPKLVIYAATSRASGVPSRFSGSGSGTDFTLTISSLQPEDFATYYCQQSYNLPLTFGGGTKVEIK
0.347 | 369_H06 (antibody, V domains shown) VH: EVQLLESGGGLVQPGGSLRLSCAASGFTFSSYGMNWVRQAPGKGLEWVANINYNGGYKSYADSVKGRFTISRDNSKNTLYLQMNSLRAEDTAVYYCARSANWHDTALDYWGQGTLVTVSS VL: DIQMTQSPSSLSASVGDRVTITCRASQSIVSYVNWYQQKPGKAPKLLIYAATSRASGVPSRFSGSGSGTDFTLTISSLQPEDFATYYCQQSYDTPLTFGGGTKVEIK
